# Patent US7250290B1, “Arsenic methyltransferase sequence variants” (priority 2003, dated 2007)
# Read-outs that look alike come from different tables or passages of the source.
# B1: WT: recombinant wild type (reference) human ASMT polypeptide, SEQ ID NO:5, expressed in COS-1 cells (protein, listed as Homo Sapiens)
# chain: MAALRDAEIQKDVQTYYGQVLKRSADLQTNGCVTTARPVPKHIREALQNVHEEVALRYYGCGLVIPEHLENCWILDLGSGSGRDCYVLSQLVGEKGHVTGIDMTKGQVEVAEKYLDYHMEKYGFQASNVTFIHGYIEKLGEAGIKNESHDIVVSNCVINLVPDKQQVLQEAYRVLKHGGELYFSDVYTSLELPEEIRTHKVLWGECLGGALYWKELAVLAQKIGFCPPRLVTANLITIQNKELERVIGDCRFVSATFRLFKHSKTGPTKRCQVIYNGGITGHEKELMFDANFTFKEGEIVEVDEETAAILKNSRFAQDFLIRPIGEKLPTSGGCSALELKDIITDPFKLAEESDSMKSRCVPDAAGGCCGTKKSC
# Key:
# [1] = system: recombinant ASMT allozymes; assay: ASMT enzyme activity of recombinant allozymes (methylation of sodium arsenite with 14C-SAM); type: biochemical, human; settings: COS-1 cell homogenate, 2.5 mM sodium arsenite, 10 μM 14C-SAM, corrected for transfection efficiency, mean ± SEM
# Description: Recombinant ASMT Expression Constructs and Allozyme Expression: ASMT cDNA sequences for the three non-synonymous cSNPs observed during the resequencing experiments were created using the QuickChange Site-Directed Mutagenesis kit (Stratagene, La Jolla, Calif.), with the wild type ASMT cDNA open reading frame (ORF) in the pUni/V5-His-TOPO (pUni) vector (Invitrogen) as template. Specifically, the full-length wild type ORF was amplified using human brain Marathon-Ready cDNA (Clontech) as template. The resultant ASMT cDNA was subcloned into pUni, a vector that is only 2.3 kilobases in length and thus is well suited for performing “circular PCR” during site-directed mutagenesis. Site-directed mutagenesis was performed using internal primers that contained the variant nucleotide sequences. […]
# ASMT Enzyme Activity: ASMT activity was measured using the methods of Zakharayan et al. (Chem. Res. Toxicol. 8(8):1029-1038 (1995)). […] The protein concentration of each recombinant protein preparation was determined by the dye-binding method of Bradford (Anal. Biochem. 72:248-254 (1976)) with bovine serum albumin as a standard. “Blank” samples included the same quantity of COS-1 15,000 x g supernatant from cells that were transfected with “empty” p91023(b) expression vector to correct for endogenous activity. […]
# [2] = system: recombinant ASMT allozymes; assay: Substrate kinetic studies, apparent Km of recombinant ASMT allozymes; type: biochemical, human
# Procedure: Estimating Apparent Km Values: To estimate apparent Km values of ASMT for the sodium arsenite and SAM, a series of sodium arsenite and SAM concentrations were tested with the recombinant allozymes. Blanks for each substrate concentration were included by assaying COS-1 cell cytosol after transfection with empty p91023(b) vector. […] Apparent Km values were calculated using the method of Wilkinson with a computer program written by Cleland. Wilkinson supra; and Cleland supra.
# Alterations in amino acid sequence can alter enzyme substrate affinity and/or catalytic efficiency. […] A series of sodium arsenite and SAM concentrations were used to estimate apparent Km values for recombinant wild type ASMT and for the three variant allozymes.
molecule,measurement,setting,value
B1,Enzyme Activity (% WT),[1],100 % WT
same,Km,"[2]; substrate SAM, read-out: SAM Km",12 ± 6.9 µM
same,Km,"[2]; substrate sodium arsenite, read-out: Sodium Arsenite Km",4.6 µM
